According to patent publication US20060134087A1, “ITI-D1 Kunitz domain mutants as hNE inhibitors” (Dyax Corp., priority 1988, published 2006):

How the values were obtained:
hNE [1] = target: T1, hNE (Homo sapiens, UniProt P08246); assay: Resistance to oxidative inactivation by Chloramine-T, residual hNE-inhibition activity; type: physicochemical; settings: for Percent Residual hNE-Inhibitory Activity: 20 minutes at RT
T1 sequence (P08246 30-267): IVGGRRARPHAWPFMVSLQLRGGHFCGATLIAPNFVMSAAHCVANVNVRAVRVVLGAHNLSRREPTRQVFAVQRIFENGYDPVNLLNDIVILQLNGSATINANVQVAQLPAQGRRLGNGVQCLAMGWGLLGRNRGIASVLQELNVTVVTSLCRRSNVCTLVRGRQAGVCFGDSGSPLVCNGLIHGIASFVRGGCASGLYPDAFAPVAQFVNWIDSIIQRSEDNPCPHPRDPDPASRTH
Protocol: At the end of the incubation period, the oxidation reactions were quenched by adding methionine to a final concentration of 4 mM. After a further 10 minute incubation, the quenched reactions were diluted and assayed for residual inhibitor activity in our standard hNE-inhibition assay.
Inhibitors were incubated in the presence of Chloramine-T at the molar ratios indicated for 20 minutes at RT. Oxidation reactions were quenched by adding methionine to a final concentration of 4 mM. Residual hNE-inhibition activity remaining in the quenched reactions is shown as a percentage of the activity observed with no added oxidant.

hNE [2] = target: T1, hNE; assay: pH stability, residual hNE inhibitory activity; type: physicochemical; settings: 37° C., 18 hours; for pH stability: pH 1 to pH 10, 1 μM; for Percent Residual hNE Inhibitory Activity: 1 μM protein
Protocol: The stability of the proteins to exposure to pH conditions in the range of pH 1 to pH 10 was assessed by maintaining the inhibitors in buffers of defined pH at 37° C. for 18 hours and determining the residual hNE inhibitory activity in the standard hNE-inhibition assay. Proteins were incubated at a concentration of 1 μM. The buffers shown in Table 4 were formulated as described (STOL90) and used in the pH ranges indicated: […]
Proteins were incubated at 37° C. for 18 hours in buffers of defined pH (see text). In all cases protein concentrations were 1 μM. At the end of the incubation period, aliquots of the reactions were diluted and residual hNE-inhibition activity determined.

hNE [3] = target: T1, hNE; assay: hNE inhibition, hydrolysis of fluorogenic substrate (Ki; standard hNE-inhibition assay); type: biochemical; parameters: concentration or dose not given beside the values
Protocol: Inhibition constants for the proteins reacting with hNE (Ki) were determined using RT measurements of hydrolysis of a fluorogenic substrate (N-methoxysuccinyl-Ala-Ala-Pro-Val-7-amino-4-methylcoumarin, Sigma M-9771) by hNE. For these measurements, aliquots of the appropriately diluted inhibitor stocks were added to 2 ml solutions of 0.847 nM hNE in reaction buffer (50 mM Tris-Cl, pH=8.0, 150 mM NaCl, 1 mM CaCl2, 0.25% Triton-X-100) in plastic fluorescence cuvettes. The reactions were incubated at RT for 30 minutes. At the end of the incubation period, the fluorogenic substrate was added at a concentration of 25 μM and the time course for increase in fluorescence at 470 nm (excitation at 380 nm) due to enzymatic substrate cleavage was recorded using a spectrofluorimeter (Perkin-Elmer 650-15) and strip chart recorder. […] Ki is related to Kapparent by Ki=Kapparent×(1/(1+(S0/Km))). The correction is small compared to the possible errors in Kapparent. Rates of enzymatic substrate cleavage were determined from the linear slopes of the recorded increases in fluorescence. The percent residual activity of hNE in the presence of the inhibitor was calculated as the percentage of the rate of fluorescence increase observed in the presence of the inhibitor to that observed when no added inhibitor was present.
We recorded data used to determine Ki for EPI-HNE-2 and EPI-HNE-3 reacting with hNE. Data obtained as described above are recorded as percent residual activity plotted as a function of added inhibitor. Values for Ki and for active inhibitor concentration in the stock are obtained from a least-squares fit program.

hNE [4] = target: T1, hNE; assay: Kinetic on-rate of inhibitors reacting with hNE (progressive inhibition); type: biochemical; settings: for kon: [hNE] = 8.47 × 10^−10 molar; for koff: calculated from koff = KD × kon
Protocol: The kinetic on-rates for the inhibitors reacting with hNE (kon) were determined from measurements of progressive inhibition of substrate hydrolytic activity by hNE following addition of inhibitor. For these experiments, a known concentration of inhibitor was added to a solution of hNE (0.847 nM) and substrate (25 μM) in 2 ml of reaction buffer in a plastic fluorescence cuvette. The change in fluorescence was recorded continuously following addition of the inhibitor. […] The enzymatic rate at selected times following addition of the inhibitor was determined from the slope of the tangent to the fluorescence time course at that time.
The kinetic constant kon for EPI-HNE-2 reacting with hNE was determined as follows. EPI-HNE-2 at 1.3 nM was added to buffer containing 0.867 nM hNE (I:E=1.5:1) at time 0. Measured percent residual activity was recorded as a function of time after addition of inhibitor. A least-squares fit program was used to obtain the value of kon=4.0×10^6 M^−1s^−1.
The kinetic off rate, koff, is calculated from the measured values of Ki and kon as: […] The values from such measurements are included in Table 30. The EPI-HNE proteins are small, high affinity, fast acting inhibitors of hNE. B. Specificity.

[5] = Molar Ratio CHL-T:Inhibitor 1.0
[6] = Molar Ratio CHL-T:Inhibitor 10.
[7] = Molar Ratio CHL-T:Inhibitor .50

## EPI-HNE-2: EPI-HNE-1 with four additional residues EAEA at the amino terminus, SEQ ID NO 008
hNE [1]; Molar Ratio CHL-T:Inhibitor 0
  Percent Residual hNE-Inhibitory Activity: 100%
hNE [1]; Molar Ratio CHL-T:Inhibitor 0.25
  Percent Residual hNE-Inhibitory Activity: 94%
hNE [1]; [5]
  Percent Residual hNE-Inhibitory Activity: 102%
hNE [1]; Molar Ratio CHL-T:Inhibitor 1.5
  Percent Residual hNE-Inhibitory Activity: 95%
hNE [1]; Molar Ratio CHL-T:Inhibitor 2.0
  Percent Residual hNE-Inhibitory Activity: 102%
hNE [1]; Molar Ratio CHL-T:Inhibitor 4.0
  Percent Residual hNE-Inhibitory Activity: 95%
hNE [1]; [6]
  Percent Residual hNE-Inhibitory Activity: 98%
hNE [1]; [7]
  Percent Residual hNE-Inhibitory Activity: 102%
hNE [2]
  pH stability: stable at all pH values tested
hNE [2]; Incubation pH 1.0
  Percent Residual hNE Inhibitory Activity: 98%
hNE [2]; Incubation pH 2.0
  Percent Residual hNE Inhibitory Activity: 97%
hNE [2]; Incubation pH 3.0
  Percent Residual hNE Inhibitory Activity: 101%
hNE [2]; Incubation pH 4.0
  Percent Residual hNE Inhibitory Activity: 101%
hNE [2]; Incubation pH 5.5
  Percent Residual hNE Inhibitory Activity: 99%
hNE [2]; Incubation pH 7.0
  Percent Residual hNE Inhibitory Activity: 103%
hNE [2]; Incubation pH 8.5
  Percent Residual hNE Inhibitory Activity: 104%
hNE [2]; Incubation pH 10.0
  Percent Residual hNE Inhibitory Activity: 102%
hNE [3]; 10. μl of EPI-HNE-2 solution added
  Percent residual hNE activity: 82.9%
hNE [3]; 20. μl of EPI-HNE-2 solution added
  Percent residual hNE activity: 71.8%
hNE [3]; 30. μl of EPI-HNE-2 solution added
  Percent residual hNE activity: 59.5%
hNE [3]; 40. μl of EPI-HNE-2 solution added
  Percent residual hNE activity: 46.2%
hNE [3]; 50. μl of EPI-HNE-2 solution added
  Percent residual hNE activity: 39.2%
hNE [3]; 55. μl of EPI-HNE-2 solution added
  Percent residual hNE activity: 32.2%
hNE [3]; 60. μl of EPI-HNE-2 solution added
  Percent residual hNE activity: 22.5%
hNE [3]; 65. μl of EPI-HNE-2 solution added
  Percent residual hNE activity: 23.5%
hNE [3]; 70. μl of EPI-HNE-2 solution added
  Percent residual hNE activity: 15.0%
hNE [3]; 75. μl of EPI-HNE-2 solution added
  Percent residual hNE activity: 10.4%
hNE [3]; 80. μl of EPI-HNE-2 solution added
  Percent residual hNE activity: 8.6%
hNE [3]; 85. μl of EPI-HNE-2 solution added
  Percent residual hNE activity: 4.8%
hNE [3]; 90. μl of EPI-HNE-2 solution added
  Percent residual hNE activity: 1.4%
hNE [3]; 95. μl of EPI-HNE-2 solution added
  Percent residual hNE activity: 2.0%
hNE [3]; 100. μl of EPI-HNE-2 solution added
  Percent residual hNE activity: 2.5%
hNE [3]; 120. μl of EPI-HNE-2 solution added
  Percent residual hNE activity: 0.2%
hNE [3]; 150. μl of EPI-HNE-2 solution added
  Percent residual hNE activity: 0.2%
hNE [3]; 200. μl of EPI-HNE-2 solution added
  Percent residual hNE activity: 0.04%
hNE [4]
  kon: 4.0 10^6/M/s
  koff: 20. 10^−6/s

## EPI-HNE-3: ITI-D2(3-58) with R15I, I18F, Q19P, L20R; SEQ ID NO 026 (AACNLPIVRGPCIAFFPRWAFDAVKGKCVLFPYGGCQGNGNKFYSEKECREYCGVP; Epi-HNE-3)
hNE [1]; Molar Ratio CHL-T:Inhibitor 0
  Percent Residual hNE-Inhibitory Activity: 100%
hNE [1]; [5]
  Percent Residual hNE-Inhibitory Activity: 97%
hNE [1]; Molar Ratio CHL-T:Inhibitor 3.0
  Percent Residual hNE-Inhibitory Activity: 97%
hNE [1]; Molar Ratio CHL-T:Inhibitor 5.0
  Percent Residual hNE-Inhibitory Activity: 94%
hNE [1]; [6]
  Percent Residual hNE-Inhibitory Activity: 97%
hNE [1]; Molar Ratio CHL-T:Inhibitor 30.
  Percent Residual hNE-Inhibitory Activity: 100%
hNE [1]; Molar Ratio CHL-T:Inhibitor 50.
  Percent Residual hNE-Inhibitory Activity: 94%
hNE [1]; [7]
  Percent Residual hNE-Inhibitory Activity: 97%
hNE [1]; all molar ratios tested (up to 50:1 for EPI-HNE-3 and EPI-HNE-4)
  hNE-inhibition activity after exposure to Chloramine-T: retain essentially complete hNE-inhibition activity
hNE [2]
  pH stability: stable when incubated at low pH, but showed some loss of activity at high pH
hNE [2]; Incubation pH 1.0
  Percent Residual hNE Inhibitory Activity: 97%
hNE [2]; Incubation pH 2.0
  Percent Residual hNE Inhibitory Activity: 97%
hNE [2]; Incubation pH 3.0
  Percent Residual hNE Inhibitory Activity: 100%
hNE [2]; Incubation pH 4.0
  Percent Residual hNE Inhibitory Activity: 102%
hNE [2]; Incubation pH 5.5
  Percent Residual hNE Inhibitory Activity: 99%
hNE [2]; Incubation pH 6.0
  Percent Residual hNE Inhibitory Activity: 103%
hNE [2]; Incubation pH 6.5
  Percent Residual hNE Inhibitory Activity: 99%
hNE [2]; Incubation pH 7.0
  Percent Residual hNE Inhibitory Activity: 103%
hNE [2]; Incubation pH 7.5
  Percent Residual hNE Inhibitory Activity: 87%
hNE [2]; Incubation pH 8.0
  Percent Residual hNE Inhibitory Activity: 84%
hNE [2]; Incubation pH 8.5
  Percent Residual hNE Inhibitory Activity: 68%
hNE [2]; Incubation pH 9.4
  Percent Residual hNE Inhibitory Activity: 44%
hNE [2]; Incubation pH 10.0
  Percent Residual hNE Inhibitory Activity: 27%
hNE [3]; 10. μl of EPI-HNE-3 solution added
  Percent residual hNE activity: 81.6%
hNE [3]; 20. μl of EPI-HNE-3 solution added
  Percent residual hNE activity: 66.9%
hNE [3]; 30. μl of EPI-HNE-3 solution added
  Percent residual hNE activity: 53.4%
hNE [3]; 40. μl of EPI-HNE-3 solution added
  Percent residual hNE activity: 38.0%
hNE [3]; 50. μl of EPI-HNE-3 solution added
  Percent residual hNE activity: 27.6%
hNE [3]; 55. μl of EPI-HNE-3 solution added
  Percent residual hNE activity: 21.5%
hNE [3]; 60. μl of EPI-HNE-3 solution added
  Percent residual hNE activity: 13.0%
hNE [3]; 65. μl of EPI-HNE-3 solution added
  Percent residual hNE activity: 11.0%
hNE [3]; 70. μl of EPI-HNE-3 solution added
  Percent residual hNE activity: 7.9%
hNE [3]; 75. μl of EPI-HNE-3 solution added
  Percent residual hNE activity: 3.8%
hNE [3]; 80. μl of EPI-HNE-3 solution added
  Percent residual hNE activity: 3.3%
hNE [3]; 85. μl of EPI-HNE-3 solution added
  Percent residual hNE activity: 2.1%
hNE [3]; 90. μl of EPI-HNE-3 solution added
  Percent residual hNE activity: 1.8%
hNE [3]; 100. μl of EPI-HNE-3 solution added
  Percent residual hNE activity: 1.6%
hNE [3]; 110. μl of EPI-HNE-3 solution added
  Percent residual hNE activity: 0.8%
hNE [3]; 120. μl of EPI-HNE-3 solution added
  Percent residual hNE activity: 0.7%
hNE [3]; 160. μl of EPI-HNE-3 solution added
  Percent residual hNE activity: 0.6%
hNE [3]; 200. μl of EPI-HNE-3 solution added
  Percent residual hNE activity: 0.2%
hNE [4]
  kon: 8.0 10^6/M/s
  koff: 50. 10^−6/s
